Values of other authors as cited in paper PMC12355045.
pKd: −log10 of the molar value.

Target: hemoglobin αβ dimer (Homo sapiens) (UniProt P69905)

hemoglobin αβ dimer (from UniProt P69905)
pKd: 6.00
